Test results taken from US20230272041A1 (DRAGONFLY THERAPEUTICS, published 2023).
Where a chain is given by its changes, count along the chain named.

Tests used:
cynomolgus monkey FcRn = cynomolgus monkey FcRn (cynomolgus monkey, UniProt Q8SPV9 24-297; Q8SPW0 21-119); test: FcRn binding at pH 6.0, reference IgG1 isotype control trastuzumab (method not stated in the paragraph)
human FcRn = human FcRn (human, UniProt P55899 24-297; P61769 21-119); test: as above
[1] = biological target: T1, recombinant human CD16a F158 allele (human, UniProt P08637 17-208, site-specific biotinylation (site not stated)); test: SPR (Biacore 8K), receptor captured on the chip via site-specific biotinylation; qualitative assessment
T1 construct: also called FcγRIIIA F158

[2] = biological target: recombinant cynomolgus CD16 (cynomolgus, UniProt Q8SPW2 17-208, site-specific biotinylation (site not stated)); test: as above
[3] = biological target: T2, recombinant human CD32a H131 allele (human, UniProt P12318 36-218, limits assumed, site-specific biotinylation (site not stated)); test: as above
T2 construct: also called FcγRIIA H131
T2 sequence (looked up): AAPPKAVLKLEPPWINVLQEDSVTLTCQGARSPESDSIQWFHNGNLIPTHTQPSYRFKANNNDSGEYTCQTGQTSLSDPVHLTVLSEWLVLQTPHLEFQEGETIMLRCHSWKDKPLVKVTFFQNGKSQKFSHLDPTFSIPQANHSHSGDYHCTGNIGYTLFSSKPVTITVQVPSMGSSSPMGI

recombinant human CD32b = biological target: T3, recombinant human CD32b (human, UniProt P31994 46-217, limits assumed, site-specific biotinylation (site not stated)); test: as above
T3 construct: also called FcγRIIB
T3 sequence (looked up): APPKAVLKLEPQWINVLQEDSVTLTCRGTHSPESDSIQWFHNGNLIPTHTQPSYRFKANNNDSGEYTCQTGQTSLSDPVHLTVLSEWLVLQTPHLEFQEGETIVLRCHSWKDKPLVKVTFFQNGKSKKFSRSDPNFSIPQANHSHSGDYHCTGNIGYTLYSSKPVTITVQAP

recombinant human CD64 = biological target: T4, recombinant human CD64 (human, UniProt P12314 16-288, limits assumed, site-specific biotinylation (site not stated)); test: as above
T4 construct: also called FcγRI

recombinant human CD16b = biological target: T5, recombinant human CD16b (human, UniProt O75015 17-200, site-specific biotinylation (site not stated)); test: as above
T5 construct: also called FcγRIIIB

[4] = biological target: T6, recombinant human CD16a V158 allele (human, UniProt P08637 17-208, site-specific biotinylation (site not stated)); test: as above
T6 construct: also called FcγRIIIA V158

[5] = biological target: T7, recombinant human CD32a R131 allele (human, UniProt P12318 36-218, limits assumed, site-specific biotinylation (site not stated)); test: as above
T7 construct: also called FcγRIIA R131
T7 sequence (looked up): T2 sequence (looked up) with H132R

T6 sequence (P08637 17-208 F176V limits assumed): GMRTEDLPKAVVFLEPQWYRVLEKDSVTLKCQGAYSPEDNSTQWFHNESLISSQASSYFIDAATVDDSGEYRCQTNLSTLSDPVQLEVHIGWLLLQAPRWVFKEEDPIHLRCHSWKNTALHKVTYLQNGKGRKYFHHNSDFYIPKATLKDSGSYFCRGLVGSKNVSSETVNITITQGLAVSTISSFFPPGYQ
T5 sequence (O75015 17-200 limits assumed): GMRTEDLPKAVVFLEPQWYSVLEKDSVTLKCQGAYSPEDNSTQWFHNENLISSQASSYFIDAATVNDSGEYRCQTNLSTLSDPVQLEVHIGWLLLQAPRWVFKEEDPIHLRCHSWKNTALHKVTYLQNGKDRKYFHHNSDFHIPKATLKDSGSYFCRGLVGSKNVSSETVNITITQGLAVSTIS
Sequence of recombinant cynomolgus CD16 (Q8SPW2 17-208 limits assumed): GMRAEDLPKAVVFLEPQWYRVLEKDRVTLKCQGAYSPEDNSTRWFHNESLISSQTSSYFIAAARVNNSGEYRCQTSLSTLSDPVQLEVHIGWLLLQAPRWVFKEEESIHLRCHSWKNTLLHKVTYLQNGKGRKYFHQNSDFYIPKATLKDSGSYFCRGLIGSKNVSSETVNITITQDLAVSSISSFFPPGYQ
T4 sequence (P12314 16-288 limits assumed): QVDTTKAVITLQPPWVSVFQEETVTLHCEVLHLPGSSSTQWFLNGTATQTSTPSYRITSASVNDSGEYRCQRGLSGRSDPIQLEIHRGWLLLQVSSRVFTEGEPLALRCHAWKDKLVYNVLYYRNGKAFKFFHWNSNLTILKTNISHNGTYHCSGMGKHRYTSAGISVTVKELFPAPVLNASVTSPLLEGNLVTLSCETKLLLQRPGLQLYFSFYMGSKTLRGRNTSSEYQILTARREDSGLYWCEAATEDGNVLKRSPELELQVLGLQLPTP
Sequence of cynomolgus monkey FcRn (Q8SPV9 24-297 limits assumed, chain 1 of 2): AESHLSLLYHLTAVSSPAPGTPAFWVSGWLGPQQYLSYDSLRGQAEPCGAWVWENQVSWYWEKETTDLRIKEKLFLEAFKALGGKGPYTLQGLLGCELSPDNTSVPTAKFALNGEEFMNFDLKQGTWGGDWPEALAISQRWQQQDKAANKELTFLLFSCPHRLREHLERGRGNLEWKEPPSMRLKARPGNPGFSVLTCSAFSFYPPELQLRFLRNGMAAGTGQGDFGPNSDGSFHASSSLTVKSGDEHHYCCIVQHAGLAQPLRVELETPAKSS
Sequence of cynomolgus monkey FcRn (Q8SPW0 21-119 limits assumed, chain 2 of 2): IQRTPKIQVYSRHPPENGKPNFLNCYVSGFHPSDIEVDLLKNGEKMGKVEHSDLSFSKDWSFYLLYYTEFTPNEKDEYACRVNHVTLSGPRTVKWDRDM
T1 sequence (P08637 17-208 limits assumed): as the sequence (P08637 17-208 F176V limits assumed) above, with V160F counted along it

fold difference in binding affinity value against trastuzumab (cynomolgus monkey FcRn): < 1.5 fold
fold difference in binding affinity value against trastuzumab (human FcRn): < 1.5 fold
binding result [1]: no binding
binding result [2]: no binding
binding result [3]: no binding
binding result (recombinant human CD32b): no binding
binding result (recombinant human CD64): no binding
binding result (recombinant human CD16b): no binding
binding result [4]: no binding
binding result [5]: no binding
B1: DF-hIL-12-Fc si (Fc fusion)
chain 1: IWELKKDVYVVELDWYPDAPGEMVVLTCDTPEEDGITWTLDQSSEVLGSGKTLTIQVKEFGDAGQYTCHKGGEVLSHSLLLLHKKEDGIWSTDILKDQKEPKNKTFLRCEAKNYSGRFTCWWLTTISTDLTFSVKSSRGSSDPQGVTCGAATLSAERVRGDNKEYEYSVECQEDSACPAAEESLPIEVMVDAVHKLKYENYTSSFFIRDIIKPDPPKNLQLKPLKNSRQVEVSWEYPDTWSTPHSYFSLTFCVQVQGKSKREKKDRVFTDKTSATVICRKNASISVRAQDRYYSSSWSEWASVPCSPKSSDKTHTCPPCPAPEAAGGPSVFLFPPKPKDTLMISRTPEVTCVVVDVSHEDPEVKFNWYVDGVEVHNAKTKPREEQYNSTYRVVSVLTVLHQDWLNGKEYKCKVSNKALAAPIEKTISKAKGQPREPQVCTLPPSRDELTENQVSLTCLVKGFYPSDIAVEWESNGQPENNYKTTPPVLDSDGSFFLYSWLTVDKSRWQQGNVFSCSVMHEALHNHYTQKSLSLSPG
chain 2: RNLPVATPDPGMFPCLHHSQNLLRAVSNMLQKARQTLEFYPCTSEEIDHEDITKDKTSTVEACLPLELTKNESCLNSRETSFITNGSCLASRKTSFMMALCLSSIYEDLKMYQVEFKTMNAKLLMDPKRQIFLDQNMLAVIDELMQALNFNSETVPQKSSLEEPDFYKTKIKLCILLHAFRIRAVTIDRVMSYLNASGGGGSGGGGSGGGGSEPKSSDKTHTCPPCPAPEAAGGPSVFLFPPKPKDTLMISRTPEVTCVVVDVSHEDPEVKFNWYVDGVEVHNAKTKPREEQYNSTYRVVSVLTVLHQDWLNGKEYKCKVSNKALAAPIEKTISKAKGQPREPRVYTLPPCRDELTKNQVSLTCLVKGFYPSDIAVEWESNGQPENNYKTTPPVLVSDGSFTLYSKLTVDKSRWQQGNVFSCSVMHEALHNHYTQKSLSLSPG
notes: also called DF IL-12-Fc; hIL-12-Fc-LALAPA
